Assay results taken from the supplement of paper PMC12636428.

Test system: Saccharomyces cerevisiae
Assay: transcriptional activation domain activity (GFP:mCherry ratio, weighted mean of sorted bins, harmonized to initial dataset scale) (arbitrary fluorescence ratio units); higher = stronger transcriptional activation
Conditions: beta-estradiol 1 µM; induction time 4 h
In short: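 Each value is an activation activity: the read-weighted mean of bin median fluorescence, averaged across barcodes, then mapped linearly to the initial dataset scale. The tiles, fused to an estradiol-inducible synthetic transcription factor, sat at the yeast URA3 locus in GFP-reporter diploids. Cells spent 4 hours at 30 °C in SC with 1 uM beta-estradiol before sorting into 8 GFP:mCherry bins, and tiles below 50 reads were removed.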

Sequence	transcriptional activation domain activity
RLLNALLLPPYLEQIMYFGTLACFDAWLYTFTILPMRFISAVGVLVKWWLYLI	47500
RLLNKTRQCHDDGIAVLQNSIETISTTLVLWTHREVIGPLQLNLNWVAMSFAC	48200
RLLRLLLRLLRLLLLRLLLLLLLLLLLLLLLRLLLRLLVTLILFLNIQRVLIL	16300
RLLRNLPLIAGHGPKYLQGIDKFVENEFLTVVGTWMRATKFDVLSFMIHYVTL	65500
RLLVTTYRMFFILVVTLNLIALALVTVGHFPYADNHIGVILLGNLLCAVMIRN	29800
RLMKKKKKSSLVFVFNHFRPVYVFLFFFSLYFFPFLSTPYFFPSFFFLFLFWV	49900
RLNFLLFCLSLFLSLYFFPFCLLFFLFSLSSFLFCLPSFLSLLSSFFFFFVSL	57200
RLPNEWGWVLNVHLCIFYTIAFCFSVYQFCLDVIIGFPQMPWLESLSLLLPVL	37500
RLPNNANSTTGLNDNDYNLDDTNNDNTNSMQSILEDFVSSEEALKFMPDAGRD	30400
RLQRDGQAGAGRGEARGGRGPVAGGQGAQHAGPVRRHRRQRRAGHLHGRKQHQ	32800
RLRAEGEEDAAAGNDQNKSGRKGGGVAMVGDGINDSPALAAASVGIALSTGSE	29300
RLRKDVGPFSPDDIQKPSLTWIHVRRNNLLLMMAPVRSYTWKAAQTLGEIFGA	28000
RLRLSCYIMMCVVTSYSTWAIVSGYFTCVPVAKFWDPTIKGHCLNFQALWFFN	61900
RLRVLYSAWQLHVDGKVRIGTLAIIGSFKELRYLGGKRTRRCGLVALLLLSAY	50700
RLRVWELGRNSWTVYKFNPDLFPFIDVYPWPRICRLLKCLVFVFRYLEIIRPL	51800
RLSASKIYIWCSGGVVFAIVLALQVLVLLALLNVITCLEGHMLSIHGWPRGEC	31100
RLSSSSKSKRSLRHPQRALCSSRAWEEDGGGNPNGGRGFVVRIRRFGRARLHS	62500
RLSTFYNLNLIRVLFRFLFTLPLLILAHDFLLMLGALGCFVSSCITLLIFFPR	63000
RLVVLYGASRIVVAIKRAHGGFDYTRRLSDEEPMVRIMTVVVSYSRLILISVY	53300
RLVYLMAKNKFGADAQQEFIGDYFRTDSATFRDVRVLFGLLSRSWFGRVWCIQ	52200
RLWCFSRGFMLVNYNVLVLSCQLAWSSEFLMSFWTFVFVLILMLLYYFVWAHK	43700

Sequence	transcriptional activation domain activity
RLWLVRGPFTELFRRFLFSNIRFTSKVTIISYIGTYYAIGAAWIMTTANYLAI	47600
RLWQLILCKLEHFHLGFFLLGSVNNIYFTYKILNDMFDIVLLGQDQQDNDDEL	60000
RLYAVRLVIVILVMELTLHFLYVVAISKSKAWDGASPLELSMVGYFNLVIIWM	42900
RLYLKGVVLTLWSLDTIHLICVCHALYWYLITNFLNAFVLEKLAWYRGWCPSH	68600
RLYMLCTKIFLLLVGQRSEVGLTYASCITFMLCAAIPSESFVRNLVLLRVMLA	58400
RMGMTQELLALVTGLAHYLKILIRIALTGALKLERDYVLREAISSFLDKLHLL	69700
RMGRWKHGWRKWWWKFYKWCFLWMIEVIRVVKVVGIVIVGCIYLGLRFFIFVE	57000
RMIGLPILLWLGTLTCQIGLLVLLRSVVFGQTNSGNVLPWGLGFWALTISTNI	71800
RMLFPNVQELHWEAQNFEKSPLLNMFMGLHLTEIYFTFSAGSYAQMTWIPIMY	33300
RMMREDYFPVARLFYCAFMLIHPHFEIPRFWQMGMHILHMLASLNYRPAILTM	68400
RMPKDCKSREFRDKAHDAVDAFAVDLEKRLRDENRPALLKLACLLMVLHQIEL	58600
RMVYSIRLVFHLYAELLLDRAFFLEWFLSFFAECSLDVLPLAFPIATALWDDL	64600
RNEGEARKGEGGRMRVVGIRQRAEGKTRRRGRKRERGREGSERRGEGGGREQG	< 6570
RNGDKDSGHSRHKDRRHEHRSERRRYSDEGEEDRHRSHRSSHRSSRRRSRSRS	31900
RNGKRTRNARKLRKPRRSRRRGEEKKKPNASALKRQRRREKKQEEELRRKQKR	47800
RNIGTGPSAPGGVDHKRSRACESCRGLKVRCEPANEANLQGSCKRCAKAGRHC	40400
RNILLFTMVADGESSLVIWSIFYHFFLDDNSLGLLLAQCRKLVQISNDMQTWM	58900
RNLAAAAAGATAVGLAAKAIHDHRARSRSRSSSASGSDRGHRHNAVLGLGAAG	42100
RNLGKLCSLHIEIRDPDLHRWNLVTLILVVHTLKSPFLERVCISFATYANIYG	42300
RNLMVIVLVVGNLRLMIENLQKYGVLICLHCHDFRRSDILLGLGLYFLIPCHL	64000
RNLMVIVLVVGNLRLVIENIQKYGVLICIRCHDFRQHDVMLGLLLYFLIPCHL	53400

Sequence	transcriptional activation domain activity
RNMRALRKTWQSSASEDGGGGGEGDEHPHLEDLEYTSREWGAFAQGLKLLAVS	70800
RNSSLEEEDQVVAEGEVVGAAEEEGGEGEGREEVVVTEGREDMAVVGMAGMAD	35400
RNVEDCAATNGSLVPISMPGGKREENDRRVPRANVSKVIILGSGGLSIGQAGE	44500
RNVIRGCRKPLSSRYVFLMSVTRLVIPLYFYVCPYNIIALKPSKWIWLLVLYV	62600
RNVYLSRFWYLSFYSGNQLRRDLNVIVGVGKNWNLPSWWAPILRYIAAPILSI	75600
RPAAVLARQRERERARDARARAVRGAAPVAAAVAVRRVARHVCVACACAAAAA	60400
RPAPAKSKARSSRKAVVEEPEIPQAQEEEEDVKPVIRGRKKRVSIAEPEKPKR	35300
RPDVVLIQAGLWARFWLFIVISHALLEYHTFADGICLCYVSTVVFLIRHAKLW	68100
RPEEAPSTDEEESRGECWSEGKLCLENYMRLNDLEPENSDPEQLAHVKELLEK	47500
RPFLLNCKDINQFTNLIWERIRITNGTKMYWVWQHLRCVVMFFTLQPNQRILL	83700
RPKVQPFWVIDLFVPYRPLLSFVSDLYFAYQAWTQLTGLTVTLFYFSIWKLAL	58500
RPLSEASRDLALPSVTRVWCDEKDNIFYMQDVNFVTDITKVLLVSVLSTVARC	47600
RPPPPSAAAEPAADAPATEEAKPGHEKKEKTEKKPKEKAKKAEKKEEVCAAAT	< 6570
RPPPRPPPQTPASPSPSPTSTTPPRSPSASRASPARPHPPSGRRTRTTRAPRR	56300
RPPVLRLRALTALITVLILLLAAIVVLYRFSERSLLYQTAFIYQAKIPYFNSI	24500
RPQSKERGGRREDGAGTDEGDSSTHPSCSSHVGRQEGVFQTVQCKHYWVVKWE	49900
RPSGASTPVQPTPEPDNKKRRRGKGGDDAETDGKPVKKAKRGRKPKVVQEPKV	33200
RPSLASSTATATATTTRPAADAASTTRAPRASLAPSTKPTTTRPAVAAAATRT	33500
RPSLGCILFILIRYVSIIVMVVSNYGVLSTSFTEKVCERYFMIAPVFKVIQTM	50600
RPSSAVVHAPRSKRAALRPSAPARCPPSSSSSSSPSTSPSCRRPASPTTSTCP	30700
RPSSPPRRPPPSSPSPAPPSKSPATCRSKTSPWGHGRCRPRPPARAPASGTAP	45200

Sequence	transcriptional activation domain activity
RPVLDVALAAGEEDLSSKPRCQRCRKSKKGCDRQRPCGRCRDAGIGIEGCISE	31500
RPWRWSFGVYVLCRTLALGGIISAFVGFSPFNEFHCDVWLRFLLVFSWFAIAS	66600
RPYLLLLHLLCSFFFFESISIILAIAFQLLLIRASSHMIIRMLLQVYCFLSMR	75900
RQAAMPKRKSPEEEDEEDEEEAPAKPAAKKAKTATAANGEKKSAGRGRPKKAA	31700
RQCMLYLIAYFMLQETFGTYFNVTGILQNEYYRPSFGLLPLLMRARIIHYSPL	34600
RQEREGYEDYEDGSRRKHKNRHSRSPSSDGEDRISRKRKSRRAKDVEDSHANS	25500
RQESSPRLPSPSHTQQRERNQTPCAARSSSSSPRRPRPQPQPSTSAPSSPASP	29400
RQIESMVAPCLVELRIWNIGAYANLCEYSTWLRLWWIRWSMYGIQFQDKTGKP	61100
RQLAWECLHHCSVQLRPSGATIRDSLRAAAHYVKHLAIQHKLVLVALQPFFAY	43100
RQLFIRGRMQTIMLDCFLELCYRGACSLSSFEHPINWFEAPSDCLIWIRRMMY	36600
RQLVLLQKAEVDLFYMTVALILICALCAGLCLNIAIQARGTTLLTNWTQLEFC	58300
RQNEKTETGKAEARTRRETGARKEHAKSGDRNAKENRNGERKQREHEKDKDGG	26000
RQQDSSQSDRDSSRDSRTRDARHHSRRDGERRQRAESNGNLRPAEESRRGRSE	25400
RQRAGASGGEEARGRREGRREGGEGEGEGKTEEGTNERDGREGERREGRRRGG	37700
RQREGQIERRGEGRAWRTEGGARGGRRKGARREKGTGREGRRRARKKAKRDRP	27600
RQRKDNHKEVERRRRGNINEGINELGRIVPNGSGEKAKGAILSRAVQYIHHLK	13600
RQRQQNGRAPRAPRAEKPTDGFEVKEGRGERRGRGEGRGEGRGRGRGGRGRGR	13000
RQSTSRRSDPGPVSRVTELARSDQDTTTTKLVSRLRATAQIRVQVVLAIVFRH	53200
RQTEKPLRSVYCYLIWGEIFVCLVFSIICWCHLYGLFGGSFEFYFMILTLWAL	33000
RQYRKRKAPAPAEGEENGEVAPAAPKPKRQRKKKPAPEEGAENTDGTAAAPKP	47000
